Assay results: the supplement of paper PMC10567573

B1: KLHL20 (parent)
chain: YQDMIYAVGGRDDTTELSSAERYN
B2: BTBD1 (parent)
chain: YGSIHGPTDYQVNIQIIEYEKKQT

Variants of: B1
Assay: protein stability index of a GFP-peptide fusion (GPS, HEK-293T) (PSI 1-6); higher = more stable
Details: c terminus: a fixed tail appended
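Further: lentivirally expressed fusions sorted by FACS into six bins by GFP to DsRed ratio, PSI derived from sequencing read proportions per bin multiplied by bin number.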

**Q.** For YQDMIYAVGGRDDTTEFSSAERYN [L17F], which protein stability index is on record?
**A.** 2.14

**Q.** Which protein stability index does the source give for YQDMIYAVGGRDDTTELSSAEFYN [R22F] here?
**A.** 2.48

**Q.** With YQDMIYAVGGRDDTTELSSAEVYN [R22V] as the variant, how does the protein stability index read?
**A.** 2.52

**Q.** Which protein stability index does the source give for YQDMIYAVGGRDDTTELSSAEPYN [R22P] here?
**A.** 2.69

**Q.** Which protein stability index does the source give for YQDMIYAVGGRDDTTELSSAEYYN [R22Y] here?
**A.** 2.63

**Q.** Which protein stability index does the source give for YQDMIYAVGGRDDTTELSSAEEYN [R22E] here?
**A.** 2.53

**Q.** For YQDMIYAVGGRDDTTELSSAELYN [R22L], which protein stability index is on record?
**A.** 2.15

**Q.** Which protein stability index does the source give for YQDMIYAVGGRDDTTELSSAEGYN [R22G] here?
**A.** 2.87

**Q.** With YQDMIYAVGGRDDTTELSSAEQYN [R22Q] as the variant, how does the protein stability index read?
**A.** 2.77

**Q.** With YQDMIYAVGGRDDTTELSSAEDYN [R22D] as the variant, how does the protein stability index read?
**A.** 2.49

**Q.** Which protein stability index does the source give for YQDMIYAVGGRDDTTELSSAEHYN [R22H] here?
**A.** 2.38

**Q.** Which protein stability index does the source give for YQDMIYAVGGRDDTTELSSAETYN [R22T] here?
**A.** 2.18

**Q.** For YQDMIYAVGGRDDTTELSSAESYN [R22S], which protein stability index is on record?
**A.** 2.48

**Q.** With YQDMIYAVGGRDDTTELSSAENYN [R22N] as the variant, how does the protein stability index read?
**A.** 1.92

**Q.** Which protein stability index does the source give for YQDMIYAVGGRDDTTELSSAEMYN [R22M] here?
**A.** 2.03

**Q.** For YQDMIYAVGGRDDTTELSSAEAYN [R22A], which protein stability index is on record?
**A.** 2.45

**Q.** For YQDMIYAVGGRDDTTELSSAECYN [R22C], which protein stability index is on record?
**A.** 2.52

**Q.** For YQDMIYAVGGRDDTTELSSAEKYN [R22K], which protein stability index is on record?
**A.** 2.08

**Q.** With YQDMIYAVGGRDDTTELSSAEIYN [R22I] as the variant, how does the protein stability index read?
**A.** 2.16

**Q.** For YQDMIYAVGGRDDTTELSSAEWYN [R22W], which protein stability index is on record?
**A.** 2.56

**Q.** With YQDMIYAVGGRDDTTELYSAERYN [S18Y] as the variant, how does the protein stability index read?
**A.** 2.22

**Q.** For YQDMIYAVGGRDDTTELASAERYN [S18A], which protein stability index is on record?
**A.** 2.03

**Q.** For YQDMIYAVGGRDDTTELESAERYN [S18E], which protein stability index is on record?
**A.** 2.02

**Q.** For YQDMIYAVGGRDDTTELHSAERYN [S18H], which protein stability index is on record?
**A.** 2.9

**Q.** Which protein stability index does the source give for YQDMIYAVGGRDDTTELNSAERYN [S18N] here?
**A.** 2.66

**Q.** For YQDMIYAVGGRDDTTELISAERYN [S18I], which protein stability index is on record?
**A.** 2.12

**Q.** For YQDMIYAVGGRDDTTELTSAERYN [S18T], which protein stability index is on record?
**A.** 2.1

**Q.** Which protein stability index does the source give for YQDMIYAVGGRDDTTELLSAERYN [S18L] here?
**A.** 2.76

**Q.** For YQDMIYAVGGRDDTTELRSAERYN [S18R], which protein stability index is on record?
**A.** 1.99

**Q.** Which protein stability index does the source give for YQDMIYAVGGRDDTTELQSAERYN [S18Q] here?
**A.** 2.22

**Q.** For YQDMIYAVGGRDDTTELMSAERYN [S18M], which protein stability index is on record?
**A.** 2.07

**Q.** For YQDMIYAVGGRDDTTELVSAERYN [S18V], which protein stability index is on record?
**A.** 2.32

**Q.** With YQDMIYAVGGRDDTTELCSAERYN [S18C] as the variant, how does the protein stability index read?
**A.** 2.07

**Q.** For YQDMIYAVGGRDDTTELDSAERYN [S18D], which protein stability index is on record?
**A.** 2.43

**Q.** With YQDMIYAVGGRDDTTELWSAERYN [S18W] as the variant, how does the protein stability index read?
**A.** 2.27

**Q.** Which protein stability index does the source give for YQDMIYAVGGRDDTTELKSAERYN [S18K] here?
**A.** 2.25

**Q.** For YQDMIYAVGGRDDTTELGSAERYN [S18G], which protein stability index is on record?
**A.** 2.5

**Q.** Which protein stability index does the source give for YQDMIYAVGGRDDTTELPSAERYN [S18P] here?
**A.** 2.1

**Q.** With YQDMIYAVGGRDDTTELFSAERYN [S18F] as the variant, how does the protein stability index read?
**A.** 2.63

**Q.** With YQDMIYAVGGRDDTYELSSAERYN [T15Y] as the variant, how does the protein stability index read?
**A.** 1.8

**Q.** For YQDMIYAVGGRDDTTELSSAHRYN [E21H], which protein stability index is on record?
**A.** 2.04

**Q.** For YQDMIYAVGGRDDTTELSSAARYN [E21A], which protein stability index is on record?
**A.** 2

**Q.** Which protein stability index does the source give for YQDMIYAVGGRDDTTELSSAKRYN [E21K] here?
**A.** 2.37

**Q.** With YQDMIYAVGGRDDTTELSSAYRYN [E21Y] as the variant, how does the protein stability index read?
**A.** 1.69

**Q.** With YQDMIYAVGGRDDTTELSSAGRYN [E21G] as the variant, how does the protein stability index read?
**A.** 1.94

**Q.** Which protein stability index does the source give for YQDMIYAVGGRDDTTELSSALRYN [E21L] here?
**A.** 1.95

**Q.** For YQDMIYAVGGRDDTTELSSADRYN [E21D], which protein stability index is on record?
**A.** 2.29

**Q.** For YQDMIYAVGGRDDTTELSSAQRYN [E21Q], which protein stability index is on record?
**A.** 1.95

**Q.** Which protein stability index does the source give for YQDMIYAVGGRDDTTELSSATRYN [E21T] here?
**A.** 2.11

**Q.** Which protein stability index does the source give for YQDMIYAVGGRDDTTELSSAFRYN [E21F] here?
**A.** 2.28

**Q.** For YQDMIYAVGGRDDTTELSSAWRYN [E21W], which protein stability index is on record?
**A.** 1.58

**Q.** For YQDMIYAVGGRDDTTELSSASRYN [E21S], which protein stability index is on record?
**A.** 1.92

**Q.** Which protein stability index does the source give for YQDMIYAVGGRDDTTELSSAMRYN [E21M] here?
**A.** 2.75

**Q.** Which protein stability index does the source give for YQDMIYAVGGRDDTTELSSARRYN [E21R] here?
**A.** 1.75

**Q.** For YQDMIYAVGGRDDTTELSSAIRYN [E21I], which protein stability index is on record?
**A.** 1.95

**Q.** Which protein stability index does the source give for YQDMIYAVGGRDDTTELSSAVRYN [E21V] here?
**A.** 2.09

**Q.** Which protein stability index does the source give for YQDMIYAVGGRDDTTELSSACRYN [E21C] here?
**A.** 2.23

**Q.** With YQDMIYAVGGRDDTTELSSAPRYN [E21P] as the variant, how does the protein stability index read?
**A.** 2.55

**Q.** For YQDMIYAVGGRDDTTELSSANRYN [E21N], which protein stability index is on record?
**A.** 1.89

**Q.** With YQDMIYAVGGRDDTTELSCAERYN [S19C] as the variant, how does the protein stability index read?
**A.** 2.16

**Q.** For YQDMIYAVGGRDDTTELSTAERYN [S19T], which protein stability index is on record?
**A.** 2.54

**Q.** Which protein stability index does the source give for YQDMIYAVGGRDDTTELSFAERYN [S19F] here?
**A.** 2.31

**Q.** With YQDMIYAVGGRDDTTELSLAERYN [S19L] as the variant, how does the protein stability index read?
**A.** 2.02

**Q.** For YQDMIYAVGGRDDTTELSGAERYN [S19G], which protein stability index is on record?
**A.** 2.32

**Q.** Which protein stability index does the source give for YQDMIYAVGGRDDTTELSMAERYN [S19M] here?
**A.** 2.01

**Q.** Which protein stability index does the source give for YQDMIYAVGGRDDTTELSEAERYN [S19E] here?
**A.** 2.45

**Q.** Which protein stability index does the source give for YQDMIYAVGGRDDTTELSWAERYN [S19W] here?
**A.** 1.99

**Q.** Which protein stability index does the source give for YQDMIYAVGGRDDTTELSQAERYN [S19Q] here?
**A.** 2.25

**Q.** With YQDMIYAVGGRDDTTELSIAERYN [S19I] as the variant, how does the protein stability index read?
**A.** 2.01

**Q.** For YQDMIYAVGGRDDTTELSAAERYN [S19A], which protein stability index is on record?
**A.** 2.87

**Q.** Which protein stability index does the source give for YQDMIYAVGGRDDTTELSRAERYN [S19R] here?
**A.** 2.53

**Q.** For YQDMIYAVGGRDDTTELSYAERYN [S19Y], which protein stability index is on record?
**A.** 1.8

**Q.** Which protein stability index does the source give for YQDMIYAVGGRDDTTELSVAERYN [S19V] here?
**A.** 1.99

**Q.** With YQDMIYAVGGRDDTTELSHAERYN [S19H] as the variant, how does the protein stability index read?
**A.** 2.33

**Q.** Which protein stability index does the source give for YQDMIYAVGGRDDTTELSDAERYN [S19D] here?
**A.** 2.43

**Q.** Which protein stability index does the source give for YQDMIYAVGGRDDTTELSPAERYN [S19P] here?
**A.** 2.66

**Q.** For YQDMIYAVGGRDDTTELSNAERYN [S19N], which protein stability index is on record?
**A.** 2.11

**Q.** With YQDMIYAVGGRDDTTELSKAERYN [S19K] as the variant, how does the protein stability index read?
**A.** 2.34

Variants of: B2
Assay: as above
Details: c terminus: a fixed tail appended

**Q.** With CGSIHGPTDYQVNIQIIEYEKKQT [Y1C] as the variant, how does the protein stability index read?
**A.** 3.4

**Q.** Which protein stability index does the source give for DGSIHGPTDYQVNIQIIEYEKKQT [Y1D] here?
**A.** 3.93

**Q.** Which protein stability index does the source give for LGSIHGPTDYQVNIQIIEYEKKQT [Y1L] here?
**A.** 2.94

**Q.** For YGSIHGPEDYQVNIQIIEYEKKQT [T8E], which protein stability index is on record?
**A.** 2.88

**Q.** For YGSIHGPWDYQVNIQIIEYEKKQT [T8W], which protein stability index is on record?
**A.** 3.36

**Q.** With YGSIHGATDYQVNIQIIEYEKKQT [P7A] as the variant, how does the protein stability index read?
**A.** 2.6

**Q.** With YGSIHGMTDYQVNIQIIEYEKKQT [P7M] as the variant, how does the protein stability index read?
**A.** 2.31

**Q.** For YGSIHGPTDYQVNIPIIEYEKKQT [Q15P], which protein stability index is on record?
**A.** 3.08

**Q.** With YGSIHGPTDYQVNIEIIEYEKKQT [Q15E] as the variant, how does the protein stability index read?
**A.** 2.66

**Q.** Which protein stability index does the source give for YHSIHGPTDYQVNIQIIEYEKKQT [G2H] here?
**A.** 2.36

**Q.** For YGSIHGPTDYEVNIQIIEYEKKQT [Q11E], which protein stability index is on record?
**A.** 2.66

**Q.** With YGSIHQPTDYQVNIQIIEYEKKQT [G6Q] as the variant, how does the protein stability index read?
**A.** 3.26

**Q.** Which protein stability index does the source give for YGSIHGPTDYQVNIQCIEYEKKQT [I16C] here?
**A.** 2.96

**Q.** Which protein stability index does the source give for YGSIHGPTSYQVNIQIIEYEKKQT [D9S] here?
**A.** 1.65

**Q.** With YGSIHGPTDYQRNIQIIEYEKKQT [V12R] as the variant, how does the protein stability index read?
**A.** 3.66

**Q.** With YGSIHGPTDYQVQIQIIEYEKKQT [N13Q] as the variant, how does the protein stability index read?
**A.** 2.69
